According to patent US20040210041A1 (published 2004):
Positions of bridges follow the written chain, without caps; N, C: chain ends.

How the values were obtained:
[1] = molecular target: T1, KDR (VEGFR-2), full-length receptor on cells (human, UniProt P35968 20-1356); experiment: cell-based or functional assay
[2] = molecular target: T1, KDR (VEGFR-2), full-length receptor on …; experiment: competition with 300 pM 125I-VEGF on KDR-transfected 293H cells; peptide 0.3 µM
Method: (§1) Cells were used 24 h after transfection, and to prepare the cells for the assay, they were washed 3 times with room temperature Ml 99 medium and placed in the refrigerator. […] Each dilution was added to three separate wells of mock and KDR transfected cells. Aflter incubating at 4° C. for 2 h, the plates were washed 5 times with cold binding buffer, gently blotted dry and checked under a microscope for cell loss. 100 μL of solubilizing solution (2% Triton X-100, 10% Glycerol, 0.1% BSA) was added to each well and the plates were incubated at room temperature for 30 minutes. The solubilizing solution in each well was mixed by pipeting up and down, and transferred to 1.2 mL tubes. Each well was washed twice with 100 μL of solubilizing solution and the washes were added to the corresponding 1.2 mL tube.

[3] = molecular target: T1, KDR (VEGFR-2), full-length receptor on …; experiment: competition with 300 pM 125I-VEGF on KDR-transfected 293H cells; peptide 30 µM
Method: as §1

T1 sequence (P35968 20-1356): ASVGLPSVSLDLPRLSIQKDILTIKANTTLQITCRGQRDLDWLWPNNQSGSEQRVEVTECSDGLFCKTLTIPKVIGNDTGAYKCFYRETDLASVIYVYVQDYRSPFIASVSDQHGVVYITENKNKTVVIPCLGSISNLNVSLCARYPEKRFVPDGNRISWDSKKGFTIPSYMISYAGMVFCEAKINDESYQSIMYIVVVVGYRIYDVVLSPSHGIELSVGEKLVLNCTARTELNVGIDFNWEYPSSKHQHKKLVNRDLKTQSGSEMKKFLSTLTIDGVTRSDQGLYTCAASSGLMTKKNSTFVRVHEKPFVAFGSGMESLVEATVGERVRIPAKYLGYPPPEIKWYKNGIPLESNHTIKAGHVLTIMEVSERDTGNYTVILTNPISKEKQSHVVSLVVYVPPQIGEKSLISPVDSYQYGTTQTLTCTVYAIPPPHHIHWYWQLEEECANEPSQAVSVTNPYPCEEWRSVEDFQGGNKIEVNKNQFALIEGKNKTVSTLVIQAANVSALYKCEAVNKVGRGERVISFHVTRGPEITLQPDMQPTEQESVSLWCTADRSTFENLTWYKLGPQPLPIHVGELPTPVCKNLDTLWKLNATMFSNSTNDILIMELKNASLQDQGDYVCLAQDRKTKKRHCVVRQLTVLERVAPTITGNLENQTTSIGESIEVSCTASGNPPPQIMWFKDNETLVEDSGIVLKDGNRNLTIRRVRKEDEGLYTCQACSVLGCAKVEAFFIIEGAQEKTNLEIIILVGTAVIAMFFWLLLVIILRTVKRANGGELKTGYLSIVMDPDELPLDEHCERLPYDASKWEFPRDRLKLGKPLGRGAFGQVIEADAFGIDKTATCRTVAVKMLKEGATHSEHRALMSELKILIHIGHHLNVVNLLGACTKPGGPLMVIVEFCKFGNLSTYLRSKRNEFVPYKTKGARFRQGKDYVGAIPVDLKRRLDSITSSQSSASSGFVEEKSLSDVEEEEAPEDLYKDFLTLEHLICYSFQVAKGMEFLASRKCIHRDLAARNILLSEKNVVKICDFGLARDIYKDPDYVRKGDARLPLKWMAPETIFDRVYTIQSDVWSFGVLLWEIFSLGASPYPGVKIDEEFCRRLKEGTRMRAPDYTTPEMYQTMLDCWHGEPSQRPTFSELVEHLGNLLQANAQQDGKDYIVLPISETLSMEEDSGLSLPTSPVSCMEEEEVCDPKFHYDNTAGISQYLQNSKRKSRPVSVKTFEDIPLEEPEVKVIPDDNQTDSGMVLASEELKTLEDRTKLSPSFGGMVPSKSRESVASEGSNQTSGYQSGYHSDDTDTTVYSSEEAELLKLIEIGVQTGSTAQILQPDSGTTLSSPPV

inhibition of VEGF-induced KDR phosphorylation [1] | % inhibition of 125I-labeled VEGF binding [2] | IC50, receptor activation assay [1] | % inhibition of 125I-labeled VEGF binding [3] | Binder
≥ 50 % inhibition at 10 µM |  |  |  | Ac-AGWIECYHPDGICYHFGTGGGK-NH2 (disulfide 6-13 (inferred)) [P2-D]
≥ 50 % inhibition at 10 µM | 52.3% | 1000 nM | 96.3% | Ac-GDSRVCWEDSWGGEVCFRYDPGGGK-NH2 (disulfide 6-16 (inferred)) [P6-D]
